Experimental data taken from the supplement of paper PMC9170038.

System: MS2 coat protein
Assay: apparent KD of MS2 coat protein; higher = weaker reporter binding
Conditions: Eterna round: R107
Method: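 RNA-MaP round R107: designed RNA switches with theophylline, tryptophan, arginine or FMN aptamers are transcribed on-chip within common flanks. They are titrated with SNAP-549-labelled MS2 coat protein in RNA-MaP buffer (100 mM Tris pH 7.5, 80 mM KCl, 4 mM MgCl2), without ligand or with the indicated ligand. Median apparent KD per design.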

[1] = input ligand: theophylline 20 uM
[2] = input ligand: tryptophan 2.4 mM
[3] = input ligand: theophylline 2 mM

Sequence: GCCCUUGGCAGCGAUACCAGCCAAAAUUAAAAUAAACCUCUACAUGAGGAUCACCCAUGUGGCCCUUGGCAGCGAUACCAGCAAA [#ReversedDoubbleAptamer 1]
- apparent KD of MS2 coat protein (input ligand: arginine 13.2 mM): 33.7 nM
- apparent KD of MS2 coat protein [1]: 49.7 nM
- apparent KD of MS2 coat protein [2]: 43.5 nM

Sequence: AAUAACAUGAGGAUCACCCAUGUAAAAGAUACCAGAGUGAUGAUCCUCCCUUGGCAGCUUAAUAACGCUAUUGGAAACAAUAGCG [Mat - Same State Theophlline A - Mod of Eli - D7]
- apparent KD of MS2 coat protein (input ligand: arginine 13.2 mM): 34.9 nM
- apparent KD of MS2 coat protein [1]: 158 nM
- apparent KD of MS2 coat protein [2]: 59 nM

Sequence: GUGGGACAUGAGGAUCACCCAUGUGACGAUACCAGUCAAUUGAUGGACCCUUGGCAGCGUUGGUAUUGCGGGUAGGCGAGAUAAG [theeternabot_sameState_MS2_Theo_A_3]
- apparent KD of MS2 coat protein (input ligand: arginine 13.2 mM): 21.4 nM
- apparent KD of MS2 coat protein [1]: 60.2 nM
- apparent KD of MS2 coat protein [2]: 40.4 nM

Sequence: ACAUGAGGAUCACCCAUGUACAUCACCCGACGAGGACCGGUACGGCCGCCACUCGGGUAUAUAUAUACAUCGGGUGGUUUUGCAU [a15jan]
- apparent KD of MS2 coat protein (input ligand: arginine 13.2 mM): 40.7 nM
- apparent KD of MS2 coat protein [1]: 88.4 nM
- apparent KD of MS2 coat protein [3]: 40 nM

Sequence: UUUUCAGGGUCGGCCGCCACUGGUAUGGCGAGUCCUCGAACAAACAUGAGGAUCACCCAUGUGAACAGGACCGGGACAGCAUGGG [Exclusion Tryptophan B GF 21]
- apparent KD of MS2 coat protein (input ligand: arginine 13.2 mM): 97.2 nM
- apparent KD of MS2 coat protein (input ligand: none): 380 nM
- apparent KD of MS2 coat protein [1]: 538 nM
- apparent KD of MS2 coat protein [3]: 645 nM
- apparent KD of MS2 coat protein [2]: 286 nM

Sequence: UCACAUGAGGAUCACCCAUGUACAGGCGAUACCAGCCGUACAUUGGGCCCUUGGCAGCGCACCGAGACCUUUUAAAGCACUUCGG [Er]
- apparent KD of MS2 coat protein (input ligand: arginine 13.2 mM): 33.5 nM
- apparent KD of MS2 coat protein [1]: 103 nM
- apparent KD of MS2 coat protein [2]: 34.7 nM

Sequence: AUCACUGUGAAAGAUACCAGCGCCCUACCUAUCUUCUGUUACAUGAGGAUCACCCAUGUUCGCCCUUGGCAGCUUGAGAUGGAUC [theeternabot_exclusion_MS2_Theo_B_11]
- apparent KD of MS2 coat protein (input ligand: arginine 13.2 mM): 44.2 nM
- apparent KD of MS2 coat protein [1]: 75.1 nM
- apparent KD of MS2 coat protein [2]: 44.9 nM

Sequence: CGCCACUCGAGUGAUCCUCACGAGUGGCUACGAGGACCGGUACGGCCGCCACUCGAAUUAACAUGAGGAUCACCCAUGUACUCCA [Brourdmod10]
- apparent KD of MS2 coat protein (input ligand: arginine 13.2 mM): 17.4 nM
- apparent KD of MS2 coat protein [1]: 173 nM
- apparent KD of MS2 coat protein [3]: 193 nM

Sequence: UAUAUAUGGAUGGAUACCAGCAGAGAAAACGUUUAUCCUAACAUGAGGAUCACCCAUGUAUGCCCUUGGCAGCUGUUUAUAUAUA [8.J]
- apparent KD of MS2 coat protein (input ligand: arginine 13.2 mM): 21 nM
- apparent KD of MS2 coat protein [1]: 33.9 nM
- apparent KD of MS2 coat protein [2]: 24.3 nM

Sequence: ACAUGAGGAUCACCCAUGUAUGAUGUUCCUCGAGGACCGGUACGGCCGCCACUCGAACGAGUGGCGCGCGAGUGCGCACUCGCGC [aWa]
- apparent KD of MS2 coat protein (input ligand: arginine 13.2 mM): 21.1 nM
- apparent KD of MS2 coat protein (input ligand: none): 15.7 nM
- apparent KD of MS2 coat protein [1]: 38.8 nM
- apparent KD of MS2 coat protein [3]: 16.8 nM
- apparent KD of MS2 coat protein [2]: 14.1 nM

Sequence: CUCCUGUGAGCGGCCGCCACUGGAGGCCUCGCGCGACAUGAGGAUCACCCAUGUUGGCCCGGCCUCAGGACCGGGUUCGCGCGAG [Same State - Tryptophan B Attempt #4 (HarryS)]
- apparent KD of MS2 coat protein (input ligand: arginine 13.2 mM): 7.89 nM
- apparent KD of MS2 coat protein (input ligand: none): 11.1 nM
- apparent KD of MS2 coat protein [1]: 15.4 nM
- apparent KD of MS2 coat protein [3]: 10.7 nM
- apparent KD of MS2 coat protein [2]: 10.9 nM

Sequence: CAGUGAGAGUCGGCCGCCACUUAACGCAAGUAGCGCAACCCAAAACAUGAGGAUCACCCAUGUCGAAGGACCGGGACAAUGAGCG [theeternabot_sameState_MS2_Trp_B_47]
- apparent KD of MS2 coat protein (input ligand: arginine 13.2 mM): 11.5 nM
- apparent KD of MS2 coat protein [1]: 16.7 nM
- apparent KD of MS2 coat protein [3]: 11.7 nM

Sequence: UUAAAUGUGACGGAUACCAGCGUGUUGUAGAACAUGAGGAUCACCCAUGUAGUGAUCAUGCGCCCUUGGCAGCUGGUAUGUUUGA [7.aA]
- apparent KD of MS2 coat protein (input ligand: arginine 13.2 mM): 189 nM
- apparent KD of MS2 coat protein [1]: 543 nM
- apparent KD of MS2 coat protein [2]: 480 nM

Sequence: ACACGGGCAUGAGGAUCACCCAUGUAAUAACGAGGACCGGUACGGCCGCCACUCGUGCACCGUGACCUGUACGAAAAGUGCAGGA
- apparent KD of MS2 coat protein (input ligand: arginine 13.2 mM): 13.6 nM
- apparent KD of MS2 coat protein (input ligand: none): 20.8 nM
- apparent KD of MS2 coat protein [1]: 26.5 nM
- apparent KD of MS2 coat protein [3]: 29.5 nM
- apparent KD of MS2 coat protein [2]: 9.98 nM

Sequence: ACGAUACGACAUGAGGAUCACCCAUGUGAUACCAGCCUGGAAACAGGCCCUUGGCAGCACAAAUACUCCAGAAACGUAUCGAAAA [MAT - Exclusion Theophlline A - Mod of Eli - D6]
- apparent KD of MS2 coat protein (input ligand: arginine 13.2 mM): 64.9 nM
- apparent KD of MS2 coat protein [1]: 262 nM
- apparent KD of MS2 coat protein [2]: 156 nM

Sequence: ACCUGUACGAAAAGUGCAGGACACGAAUAACGAGGACCGGUACGGCCGCCACUCGGAAAAUAACCUGAGGAUCACCCUGGUCGUG [TrypAS 7 #AlternativeMS2 #Zipper #StaticStem]
- apparent KD of MS2 coat protein (input ligand: arginine 13.2 mM): 29.5 nM
- apparent KD of MS2 coat protein (input ligand: none): 31.6 nM
- apparent KD of MS2 coat protein [1]: 37.5 nM
- apparent KD of MS2 coat protein [3]: 40.1 nM
- apparent KD of MS2 coat protein [2]: 33.9 nM

Sequence: AAAUAAAUACAUGAGGAUCACCCAUGUGAAGGAGCGCCCGUUAGGGCAGGUAGGUCGCACAUGAAAGGGAAGCGAAAGAAAUAAU [ArgEX 15 #OpenEnded]
- apparent KD of MS2 coat protein (input ligand: arginine 13.2 mM): 26.8 nM
- apparent KD of MS2 coat protein (input ligand: none): 20.2 nM
- apparent KD of MS2 coat protein [1]: 24.5 nM
- apparent KD of MS2 coat protein [3]: 16.5 nM
- apparent KD of MS2 coat protein [2]: 20.3 nM

Sequence: ACAUGAGGAUCACCCAUGUAUUCAUCAGAAGGAGCGUGGAAUAACACAGGUAGGUCGCUGAUUAUUUGUUAAAUAAAAUCGUGUA [JR_Nu_SSArginiA_Sub022]
- apparent KD of MS2 coat protein (input ligand: arginine 13.2 mM): 12.5 nM
- apparent KD of MS2 coat protein (input ligand: none): 17.3 nM
- apparent KD of MS2 coat protein [1]: 20.6 nM
- apparent KD of MS2 coat protein [3]: 17.1 nM
- apparent KD of MS2 coat protein [2]: 18.3 nM

Sequence: UGUAUGUGAUCUGAUACCAGCUUUGAUAACCUGAGGAUCACCCUGGUAAGGCGAAAGCCAAGCCCUUGGCAGCAGAUCGCAUACU
- apparent KD of MS2 coat protein (input ligand: arginine 13.2 mM): 40.1 nM
- apparent KD of MS2 coat protein (input ligand: none): 34.5 nM
- apparent KD of MS2 coat protein [1]: 34.5 nM
- apparent KD of MS2 coat protein [3]: 21.9 nM
- apparent KD of MS2 coat protein [2]: 37.3 nM
